Measured values: PMC10095102, “Conformational Changes of Acyl Carrier Protein Switch the Chain Length Preference of Acyl-ACP Thioesterase ChFatB2” (International Journal of Molecular Sciences, 2023)

T1: acyl-ACP thioesterase ChFatB2 from Cuphea hookeriana, excluding the transit peptide (residues 129-395) (Cuphea hookeriana, UniProt Q39514 129-395)
T1 sequence (looked up): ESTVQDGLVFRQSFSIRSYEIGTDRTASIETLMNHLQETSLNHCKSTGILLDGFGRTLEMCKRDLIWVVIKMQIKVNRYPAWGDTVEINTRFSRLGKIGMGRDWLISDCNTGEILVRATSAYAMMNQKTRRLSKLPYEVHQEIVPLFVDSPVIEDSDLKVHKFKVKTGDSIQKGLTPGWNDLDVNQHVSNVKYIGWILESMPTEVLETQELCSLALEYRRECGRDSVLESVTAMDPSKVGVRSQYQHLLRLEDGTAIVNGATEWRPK

B1: C8-acyl acyl carrier protein from Escherichia coli (natural protein)
chain: STIEERVKKIIGEQLGVKQEEVTNNASFVEDLGADSLDTVELVMALEEEFDTEIPDEEAEKITTVQAAIDYINGHQA
modifications: C8 (8:0) acyl chain on the phosphopantetheine of holo-ACP (residue not given)
notes: also called C8-EcACP; C8-ACP
B2: C10-acyl acyl carrier protein from Escherichia coli (natural protein)
chain: B1 chain
modifications: C10 (10:0) acyl chain on the phosphopantetheine of holo-ACP (residue not given)
notes: also called C10-EcACP
B3: C8-acyl acyl carrier protein 2 from Cuphea lanceolata (residues 54-137) (natural protein, UniProt P52412 54-137, looked up)
chain: QAKPETVTKVCNIVKKQLALPDDSDVSGVSKFSALGADSLDTVEIVMGLEEEFGISVEEESAQSIQTVQDAADLIEKLMEKKGH
modifications: C8 (8:0) acyl chain on the phosphopantetheine of holo-ACP (residue not given)
notes: acyl carrier protein ClACP2, Cuphea lanceolata, UniProt P52412, residues 54-137, excluding the chloroplast transit peptide; also called C8-ClACP2
B4: C10-acyl acyl carrier protein 2 from Cuphea lanceolata (residues 54-137) (natural protein, UniProt P52412 54-137, looked up)
chain: B3 chain
modifications: C10 (10:0) acyl chain on the phosphopantetheine of holo-ACP (residue not given)
notes: acyl carrier protein ClACP2, Cuphea lanceolata, UniProt P52412, residues 54-137, excluding the chloroplast transit peptide; also called C10-ClACP2
B5: holo acyl carrier protein from Escherichia coli (natural protein)
chain: B1 chain
modifications: holo form (phosphopantetheine; residue not given)
notes: also called holo-EcACP; EC-holo-ACP; source: E. coli BAP1 (chromosomal B. subtilis Sfp), purified (Ni-NTA, Superdex 200)
B6: holo acyl carrier protein 2 from Cuphea lanceolata, excluding the chloroplast transit peptide (residues 54-137) (natural protein, UniProt P52412 54-137, looked up)
chain: B3 chain
modifications: holo form (phosphopantetheine; residue not given)
notes: acyl carrier protein ClACP2, Cuphea lanceolata, UniProt P52412, residues 54-137, excluding the chloroplast transit peptide; also called holo-ClACP2; ClACP2; source: E. coli BAP1 (chromosomal B. subtilis Sfp), purified (Ni-NTA, Superdex 200)

target: T1, acyl-ACP thioesterase ChFatB2 from …; assay: cell-based or functional assay; conditions: not given

| Km of ChFatB2 thioesterase activity (DTNB assay, Michaelis-Menten fit) | Binder |
| --- | --- |
| 350 µM | B1 |
| 186 µM | B2 |
| 217 µM | B3 |
| 263 µM | B4 |

target: T1, acyl-ACP thioesterase ChFatB2 from …; assay: cell-based or functional assay; conditions: not given; remark: another data set of the same source

| relative activity of ChFatB2 (thioesterase, DTNB assay) | Binder |
| --- | --- |
| 0.07 µmol/min/mg | B1 |
| 0.17 µmol/min/mg | B2 |
| 0.51 µmol/min/mg | B3 |
| 0.33 µmol/min/mg | B4 |

target: T1, acyl-ACP thioesterase ChFatB2 from …; assay: liquid crystal assay; ChFatB2 (5 μg/mL, 1.5 µL) dried on DMOAP-coated glass slides; ACP solutions (10 μg/mL, 1.5 µL) deposited on the immobilized ChFatB2, 30 min, washed with deionized water; grayscale of polarised-light images of the liquid crystal cell (Image J); semi-quantitative; holo-ACP defined as 100% binding; conditions: both partners purified

| grayscale of the liquid crystal image | Binder |
| --- | --- |
| 106 ± 11.8 grayscale | B1 |
| 156 ± 3.2 grayscale | B5 |
| 138 ± 5.3 grayscale | B2 |
| 139 ± 6 grayscale | B3 |
| 96.7 ± 11 grayscale | B4 |
| 145 ± 19.1 grayscale | B6 |
